Source: publication PMC3848981 (PLoS Biology, 2013)
Changes are numbered by the printed parent chain. Names and notes keep the numbering of the source. One block for each molecule: values may come before it.

Tests used:
TRAF4 = biological target: T1, TRAF4 (Homo sapiens, UniProt Q9BUZ4); assay: isothermal titration calorimetry; type: binding
T1 construct: TRAF domain (TRAF-6His), homotrimer
T1 sequence (Q9BUZ4 283-470): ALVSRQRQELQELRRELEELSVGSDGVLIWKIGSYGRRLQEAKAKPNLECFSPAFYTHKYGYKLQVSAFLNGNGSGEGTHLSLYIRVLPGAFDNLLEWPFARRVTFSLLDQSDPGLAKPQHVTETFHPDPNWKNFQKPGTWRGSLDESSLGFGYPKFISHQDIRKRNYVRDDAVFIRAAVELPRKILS

[1] = biological target: the molecule itself; assay: native MS; ESI-TOF in native condition, TRAF-6His alone (no lipid), 20 pmol/µL protein in ammonium bicarbonate buffer (100 mM NH4HCO3 pH 8)
[2] = biological target: the molecule itself; assay: SEC + other: dynamic light scattering; gel filtration of 1 ml containing 1 mg WT or 0.3 mg K345E TRAF domain; DLS with 20 µM protein at 25°C in 10 mM Tris pH 7.5, 150 mM NaCl

Kd (TRAF4): 5.68 µM
Molecule: O=P(O)(O)O[C@H]1[C@H](O)[C@@H](OP(=O)(O)O)[C@H](OP(=O)(O)O)[C@@H](OP(=O)(O)O)[C@H]1O [IP4, inositol-(1,3,4,5)-tetrakisphosphate]

B1: TRAF domain of human TRAF4 fused to a 6His tag (TRAF-6His) (domain or fragment, UniProt Q9BUZ4 283-470, looked up)
chain: T1 sequence (Q9BUZ4 283-470)
notes: Tumor necrosis factor receptor-associated factor 4 (TRAF4), human, TRAF domain; the crystal structure includes residues 283-470 of the TRAF domain; Printed monomer mass 22.6 kDa; also called TRAF4-TRAF domain; WT TRAF domain
stoichiometry N [1]: 3

B2: K345E mutant TRAF domain of TRAF4 (domain or fragment, human, UniProt Q9BUZ4 283-470, looked up)
chain: T1 sequence (Q9BUZ4 283-470) with K63E
notes: Tumor necrosis factor receptor-associated factor 4 (TRAF4), human, TRAF domain with K345E; same limits as the wild-type TRAF domain, whose structure includes residues 283-470; also called TRAF-K345E; TRAF-6HIS K345E; source: E. coli, purified
stoichiometry N [2]: 3
